Results reported in the domain aggregation screens of Martell et al. (2025).

assay: soluble fraction after stress (log2 fold change); higher = more stays soluble; pooled small domains, quantitative proteomics; conditions: stress: 50 degC
Outline: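 Quantitative proteomics served as the high-throughput read-out for pooled custom libraries of small protein domains. Each was stressed at 50°C. Aggregation propensity is expressed as the base-two log fold change in soluble protein after stress. A higher value means a larger share of the protein remains in solution.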

| Sequence | soluble fraction (log2) |
| --- | --- |
| HMDVQPTTTKTMFYTVQQGETLFSISRKFGISVEEITKKNPLASSGLTVGMELLLPEKKEINSTIQS | 0.265 |
| HMEPMNMYSSIKKVIGVVSGKGGVGKSLVTASLARMMRAKGYHVGIMDADITGPSIPKMYGLHEMA | 0.42 |
| HMVDPRLRSLTPQERRILEHIAEGLTNRQIAEDMFLAEKTVKNYVTSILDKLGMDSRTQAAVYAATHPT | -0.252 |
| HMLRTLSTSEFAEAIGISESSARRLADSGDLRIRRTKGGHRKIPAEEAIRYAREIQATVVRPDLLGLST | 0.0109 |
| HMKTSVGSKMMVMANNLSIRKSANLLSEKLADLSKGDMVEYISSTNGWNKVRYNGYVGYVSSYYLKDTGEV | -0.738 |
| HMDPDDEILINIMTKLLTEKQIIIKNKEIFNFLLKRINRTYEEVYNLINKMDKLSLEKKKQLTIPSIKEL | -1.21 |
| HMVFTEEEMLEKIKEYLSTNSYINRRAMETLFNLRQSTALKWLGHFTEIGVLRKEGERNYPVYFLNN | -0.296 |
| HMEGLDDKTKIILFAGDKKEQEYSLADLKSKLNITENLTESELIKLLEKQGYVLDVNANNEFMFKKD | -0.0985 |
| HMIIENIVVEIKGEVYNPGLYILEQGSRINDLIELSGGFTKDANGTDLNLAKVLSDGEVIIVSKKG | -0.2 |
| HMVREVGYNAFLAMLDSGAVKEVARDESEGQITFLATDEKGKERVYKTGIWPDDTLTERLNTAGVEFA | 0.178 |
| HMRVNINVSENILDWVMKRVNPSVLSSKQGELLYAWKEGRKVPTYNQIEKMSKVTGIPLGYFFLEKPPVE | -0.569 |
| HMQAATGVVTASVLNIRQGPGTNYTKVGSLLKGAQVEIVGQNGAWSKIRLKSGITGWVNSSYLKTST | -0.0664 |
| HMSDYKSALQEAVQTNKQSIEYVLIKESGPAHNKTFTFEVRIDNISYGVGTAKSKKEAEQIAAKDALDKLV | -0.0635 |
| HMIRILIVDDSAFMRKLLSDVFEEDKNFVVVDTARNGQDAVEKVKRLKPDLVTMDVEMPVMDGLTAVEIIM | -0.36 |
| HMKIPIIYQPLKNAKRIKIYIPYELKELRTIFKKINTTFWHPNQKLWSIIYTQENVALIKNLFGKNYKIVN | -0.547 |
| HMTPTITNALEEAEKAVSEVQEGKKEIELTPQGAYIRHLQHAIADRYGISSTSTGRDPKRKVIIY | -0.108 |
| HMQAPHLALSPREFQVLQGLLAGDALDIIAERLHLSAKTVSNHQTLIRQKLGVGNAVELLRYAQLHRL | -2.15 |
| HMTIFGWQTDETGKWYRNADGTFFEAGWKEIDGAKYYFDENGYVKTGWLELDGKDYYFDEEGRYDSSKVR | -0.33 |
| HMGFVATRSRKFLPFSEARAITRGLGFSNQKDYKEWIKGNGNELLLPFNPWRTYGDSGWKGWKDFLGTDKA | -1.03 |
| HMNVDALVGMPARVTRAFVQGAGEVKLDNGETWTARLSAGVTDAEASVGQTVSVIAVRGAAVEVAPE | 0.0386 |
| HMLAQYPGQVFSKEQIYNQVWKEPYYGVEDNVMSLIRRIRKKIEPDPSRPIYILTVWGIGYKFNN | -0.197 |
| HMDETYRRQLEDLAREHGAEYLHGILREVDPASAEAIHANNIKRVIRALEFYHLSGKKISEHNETERQ | 0.158 |
| HMDEILHHPSYRAIYEYMLDHKHVKTKDIAALLNVKEPRARQLLKEMIDKHFIIALGSNRNREYELL | -0.495 |
| HMYTLGEESDGTVRLLELYDIIKNKNEKIFVVDELDRSLHPNLTFNFVKKYLSIENKSQLIVSTH | -0.0206 |
| HMFPELSEEEQIIVSLLQKQPDGLQINTLVVESNIPVNRMSGILFELEMKGIIRMAAGGVYRLL | -0.203 |
| HMQISDSASVKTVVAEAIAANPKAVADFMNGKDTATRYLVGQVMKITKGQAKPELVNQLVLESLAELKEK | 0.335 |
| HMRQQQISAAIKTSVNGTVDYYVRRLPERDPRGDFLEVWDDLQKVIQAAHGIQVSHDELYEYFRRLK | -0.337 |
| HMQDRDKNVPAGKELLDNEIARLNMSLKQVEQFALPRYNLKTLEDLYSGIGSGDIRLNHLINFLQSKLI | -0.135 |
| HMQDEREEIAVEDVVGMPLWQARKVIADQGFRVLDDGAGDIVIAQMPSGGGKLIEGGQVMLYTYTD | 0.186 |
| HMDRETEEYELIRAKLEWLYQKQTGTIRNQTAKILHHLEIAKEEGNYYLYLKIKEEAKQWLVQASMYLD | -0.231 |
